In US20190359687A1 (Bayer, published 2019):

T1: human glycophorin A on human red blood cells or red blood cell membranes (human, UniProt P02724 20-150)
T1 construct: whole, on cells; also called hRBC; human RBC membranes
T1 sequence (looked up): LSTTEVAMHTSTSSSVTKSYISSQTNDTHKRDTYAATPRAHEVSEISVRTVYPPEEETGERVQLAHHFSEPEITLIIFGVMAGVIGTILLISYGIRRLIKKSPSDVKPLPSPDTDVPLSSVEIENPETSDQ


How the values were obtained:
[1] = biological target: T1, human glycophorin A on human red blood …; assay: SPR (Biacore), Fab on human RBC membranes;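 further: human RBC membranes captured on an L1 sensor chip, Fab fragments passed over as analyte, binding kinetics read by surface plasmon resonance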
Procedure: (§1) Kinetic analysis of the antibody binding to human red blood cell membranes was also performed using surface plasmon resonance (SPR) using a Biacore instrument. In this assay membranes prepared from human red blood cells were attached to a L1 sensor matrix and antibodies were flowed over the RBC membranes.
(§2) The binding kinetics of the affinity matured Fab antibodies was also measured.

[2] = biological target: T1, human glycophorin A on human red blood …; assay: SPR (Biacore), Fab on human RBC membranes; T½ = 0.69/kd;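 on kd: human RBC membranes captured on an L1 sensor chip, Fab fragments passed over as analyte, binding kinetics read by surface plasmon resonance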;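 on koff: human RBC membranes captured on an L1 sensor chip, Fab fragments passed over as analyte, binding kinetics read by surface plasmon resonance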
Procedure: as §1, §2

[3] = biological target: T1, human glycophorin A on human red blood …; assay: SPR (Biacore), Fab on human RBC membranes; * not accurate, instrument limit;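 on kd: human RBC membranes captured on an L1 sensor chip, Fab fragments passed over as analyte, binding kinetics read by surface plasmon resonance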
Procedure: as §1, §2

[4] = biological target: T2, Cynomolgus monkey glycophorin A on Cynomolgus monkey red blood cells or red blood cell membranes (Cynomolgus monkey); assay: Fab 7 ug/ml on intact cyno RBC, unbound Fab by ELISA; pre-dilution
T2 construct: whole, on cells; also called Cyno RBC; Cynomolgus monkey RBC membranes

[5] = biological target: T1, human glycophorin A on human red blood …; assay: Fab 7 ug/ml on intact human RBC, unbound Fab by ELISA; pre-dilution
Procedure: (§3) The binding of affinity matured Fab antibodies to intact human RBC was also measured. Human RBC were isolated from fresh anti-coagulated normal human blood by centrifugation through a ficol gradient and washing in PBS buffer. RBC diluted to 1/10th of normal hematocrit were incubated with purified Fab antibodies at a final concentration of 7 ug/ml for 1 hour at room temperature on a rotating shaker after which a sample was taken and the RBC were pelleted by centrifugation and the supernatant was collected. The remaining RBC suspension was diluted 200-fold in PBS buffer and incubated for a total of 2 hours at room temperature on a rotating shaker and samples were removed at 0, 5 min, 20 min, 1 h and 2 h and the RBC pelleted and the supernatant collected. The amount of Fab in the supernatants was then measured using an ELISA assay and the results used to calculate the percentage of the input Fab that was bound to the RBC. […] The percentage that remains bound after 200-fold dilution of the RBC suspension is an indication of the overall strength of the binding to human RBC.

[6] = biological target: T2, Cynomolgus monkey glycophorin A on …; assay: Fab on intact cyno RBC, unbound Fab by ELISA; 0 min after 200-fold dilution
Procedure: (§4) The binding of affinity matured Fab antibodies to intact Cynomolgus monkey RBC was measured. Cynomolgus monkey RBC were isolated from fresh anti-coagulated blood by centrifugation through a ficol gradient and washing in PBS buffer. RBC diluted to 1/10th of normal hematocrit were incubated with the Fab at a final concentration of 7 ug/ml for 1 hour at room temperature on a rotating shaker after which a sample was taken and the RBC were pelleted by centrifugation and the supernatant was collected. The remaining RBC suspension was diluted 200-fold in PBS buffer and incubated for a total of 2 hours at room temperature on a rotating shaker and samples were removed at 0, 5 min, 20 min, 1 h and 2 h and the RBC pelleted and the supernatant collected. […] The amount of Fab in the supernatants was then measured using an ELISA assay and the results used to calculate the percentage of the input Fab that was bound to the RBC.

[7] = biological target: T2, Cynomolgus monkey glycophorin A on …; assay: Fab on intact cyno RBC, unbound Fab by ELISA; 5 min after 200-fold dilution
[8] = biological target: T1, human glycophorin A on human red blood …; assay: Fab on intact human RBC, unbound Fab by ELISA; 0 min after 200-fold dilution
[9] = biological target: T1, human glycophorin A on human red blood …; assay: Fab on intact human RBC, unbound Fab by ELISA; 5 min after 200-fold dilution
[10] = biological target: T2, Cynomolgus monkey glycophorin A on …; assay: Fab on intact cyno RBC, unbound Fab by ELISA; 20 min after 200-fold dilution
Procedure: as §4

[11] = biological target: T2, Cynomolgus monkey glycophorin A on …; assay: Fab on intact cyno RBC, unbound Fab by ELISA; 60 min after 200-fold dilution
Procedure: as §4

[12] = biological target: T1, human glycophorin A on human red blood …; assay: Fab on intact human RBC, unbound Fab by ELISA; 20 min after 200-fold dilution
Procedure: as §3

[13] = biological target: T1, human glycophorin A on human red blood …; assay: Fab on intact human RBC, unbound Fab by ELISA; 60 min after 200-fold dilution
Procedure: as §3

[14] = biological target: T2, Cynomolgus monkey glycophorin A on …; assay: Fab on intact cyno RBC, unbound Fab by ELISA; 120 min after 200-fold dilution
Procedure: as §4

[15] = biological target: T1, human glycophorin A on human red blood …; assay: Fab on intact human RBC, unbound Fab by ELISA; 120 min after 200-fold dilution
Procedure: as §3

Kd [1] [nM]	koff [1] [s⁻¹]	Estimated T½ [2] [min]	kon [3] [M⁻¹ s⁻¹]	percentage of input antibody bound [4] [%]	percentage of input antibody bound [5] [%]	percentage of input antibody bound [6] [%]	percentage of input antibody bound [7] [%]	percentage of input antibody bound [8] [%]	percentage of input antibody bound [9] [%]	percentage of input antibody bound [10] [%]	percentage of input antibody bound [11] [%]	percentage of input antibody bound [12] [%]	percentage of input antibody bound [13] [%]	percentage of input antibody bound [14] [%]	percentage of input antibody bound [15] [%]	kon [1] [M⁻¹ s⁻¹]	Binder
0.0829	0.00097	12	1.17e+07	–	–	–	–	–	–	–	–	–	–	–	–	–	TPP-7776, affinity matured 6C12 Fab (Fab, V domains shown, Tested as Fab) VH: EVQLVQSGAEVKKPGASVKVSCKASGYTFTTYAIHWVRQAPGQGLEWMGYINPSSGYTRYNPKFKGRVTMTRDKSTSTAYMELRSLRSDDTAVYYCQTGTRDYWGQGTTVTVSS VL: DIQLTQSPSFLSASVGDRVTITCRASSSVRYIYWFQQKPGKAPKLLIYATSTLRSGVPSRFSGSGSGTEYTLTISSLQPEDFATYYCHQRNSFPYTFGQGTKLEIK
0.011	0.0011	10	1e+08	81	95	56	54	84	76	48	36	66	66	27	64	–	TPP-7778, affinity matured 6C12 Fab (Fab, V domains shown, Tested as Fab) VH: EVQLVQSGAEVKKPGASVKVSCKASGYTFTTYAIHWVRQAPGQGLEWMGYINPSSGYTRYNPKFKHRVTMTRDKSTSTAYMELRSLRSDDTAVYYCQTGTRDYWGQGTTVTVSS VL: DIQLTQSPSFLSASVGDRVTITCRASSSVRYIYWFQQKPGKAPKLLIYATSTLQSGVPSRFSGSGSGTEYTLTISSLQPEDFATYYCHQRNSFPYTFGQGTKLEIK
0.0289	0.000547	21	1.89e+07	86	97	40	34	93	69	32	24	61	64	19	59	–	TPP-7781, affinity matured 6C12 Fab (Fab, V domains shown, Tested as Fab) VH: EVQLVQSGAEVKKPGASVKVSCKASGYTFTTYTIHWVRQAPGQGLEWMGYINPKSGWTRYNPKFKGRVTMTRDKSTSTAYMELRSLRSDDTAVYYCQTGTRDYWGQGTTVTVSS VL: DIQLTQSPSFLSASVGDRVTITCRASSSVRYIYWFQQKPGKAPKLLIYATSTLQSGVPSRFSGSGSGTEYTLTISSLQPEDFATYYCHQRNSFPYTFGQGTKLEIK
0.0295	0.000413	28	1.4e+07	94	99	88	68	95	83	59	57	76	79	52	77	–	TPP-7782, affinity matured 6C12 Fab (Fab, V domains shown, Tested as Fab) VH: EVQLVQSGAEVKKPGASVKVSCKASGYTFTTYTIHWVRQAPGQGLEWMGYINPSSGYTRYNPKFKGRVTMTRDKSTSTAYMELRSLRSDDTAVYYCQTGTRDYWGQGTTVTVSS VL: DIQLTQSPSFLSASVGDRVTITCRASSSVRYIYWFQQKPGKAPKLLIYATSFRQSGVPSRFSGSGSGTEYTLTISSLQPEDFATYYCHQRNSFPYTFGQGTKLEIK
0.136	0.000413	28	–	–	–	–	–	–	–	–	–	–	–	–	–	3.03e+06	TPP-7788, affinity matured 6C12 Fab (Fab, V domains shown, Tested as Fab) VH: EVQLVQSGAEVKKPGASVKVSCKASGYTFTTYTIHWVRQAPGQGLEWMGYINPKSGWTRYNPKFKGRVTMTRDKSTSTAYMELRSLRSDDTAVYYCQTGTRDYWGQGTTVTVSS VL: DIQLTQSPSFLSASVGDRVTITCRASSSVSYIYWFQQKPGKAPKLLIYATSFRQSGVPSRFSGSGSGTEYTLTISSLQPEDFATYYCHQRNSFPYTFGQGTKLEIK
0.00799	0.000128	90	1.61e+07	–	–	–	–	–	–	–	–	–	–	–	–	–	TPP-7789, affinity matured 6C12 Fab (Fab, V domains shown, Tested as Fab) VH: EVQLVQSGAEVKKPGASVKVSCKASGYTFTTYTIHWVRQAPGQGLEWMGYINPSSGYTRYNPKFKHRVTMTRDKSTSTAYMELRSLRSDDTAVYYCWTGTRDYWGQGTTVTVSS VL: DIQLTQSPSFLSASVGDRVTITCRASSSVRYIYWFQQKPGKAPKLLIYATSTLQSGVPSRFSGSGSGTEYTLTISSLQPEDFATYYCHQRNSFPYTFGQGTKLEIK
0.0246	0.000504	23	2.05e+07	72	98	58	58	96	92	51	51	86	85	46	86	–	TPP-7793, affinity matured 6C12 Fab (Fab, V domains shown, Tested as Fab) VH: EVQLVQSGAEVKKPGASVKVSCKASGYTFTRYTIHWVRQAPGQGLEWMGYINPSSGYTRYNPKFKGRVTMTRDKSTSTAYMELRSLRSDDTAVYYCWTGTRDYWGQGTTVTVSS VL: DIQLTQSPSFLSASVGDRVTITCRASSSVSYIYWFQQKPGKAPKLLIYATSTLQSGVPSRFSGSGSGTEYTLTISSLQPEDFATYYCHQRNSFPYTFGQGTKLEIK
–	–	–	–	73	95	–	51	86	74	39	29	63	63	22	63	–	TPP-7795, affinity matured 6C12 Fab (Fab, V domains shown, Tested as Fab) VH: EVQLVQSGAEVKKPGASVKVSCKASGYTFTTYTIHWVRQAPGQGLEWMGYINPKSGWTRYNPKFKGRVTMTRDKSTSTAYMELRSLRSDDTAVYYCQTGTRDYWGQGTTVTVSS VL: DIQLTQSPSFLSASVGDRVTITCRASSSVSYIYWFQQKPGKAPKLLIYATSFLQSGVPSRFSGSGSGTEYTLTISSLQPEDFATYYCHQRNSFPYTFGQGTKLEIK
0.111	0.00238	5	2.15e+07	68	96	56	43	82	48	21	7	12	15	0	13	–	TPP-7796, affinity matured 6C12 Fab (Fab, V domains shown, Tested as Fab) VH: EVQLVQSGAEVKKPGASVKVSCKASGYTFTTYTIHWVRQAPGQGLEWMGYINPKSGWTRYNPKFKGRVTMTRDKSTSTAYMELRSLRSDDTAVYYCQTGTRDYWGQGTTVTVSS VL: DIQLTQSPSFLSASVGDRVTITCRASSSVSYIYWFQQKPGKAPKLLIYATSTLQSGVPSRFSGSGSGTEYTLTISSLQPEDFATYYCHQRNSFPYTFGQGTKLEIK
